± gives the standard deviation of the averaged measurements.
Experiment: total protein half-life in vivo (active degradation + dilution); higher = more stable protein
[1] = E. coli NCM3722 delta-clpP delta-lon delta-hslV, growth: N-lim chemostat, doubling time 6 h
[2] = E. coli NCM3722 delta-clpP, growth: N-lim chemostat, doubling time 6 h
[3] = E. coli NCM3722 delta-hslV, growth: N-lim chemostat, doubling time 6 h
[4] = E. coli NCM3722 delta-lon, growth: N-lim chemostat, doubling time 6 h
[5] = E. coli NCM3722 delta-smpB, growth: N-lim chemostat, doubling time 6 h
[6] = wild type E. coli NCM3722, growth: C-lim chemostat, doubling time 3 h
[7] = wild type E. coli NCM3722, growth: C-lim chemostat, doubling time 6 h
[8] = wild type E. coli NCM3722, growth: C-lim chemostat, doubling time 12 h
[9] = wild type E. coli NCM3722, growth: N-lim chemostat, doubling time 6 h
[10] = wild type E. coli NCM3722, growth: N-lim chemostat, doubling time 12 h
[11] = wild type E. coli NCM3722, growth: P-lim chemostat, doubling time 6 h
[12] = wild type E. coli NCM3722, growth: P-lim chemostat, doubling time 12 h

Row | Sequence | total protein half-life in vivo [1] [h] | total protein half-life in vivo [2] [h] | total protein half-life in vivo [3] [h] | total protein half-life in vivo [4] [h] | total protein half-life in vivo [5] [h] | total protein half-life in vivo [6] [h] | total protein half-life in vivo [7] [h] | total protein half-life in vivo [8] [h] | total protein half-life in vivo [9] [h] | total protein half-life in vivo [10] [h] | total protein half-life in vivo [11] [h] | total protein half-life in vivo [12] [h]
1 | MSLSLWQQCLARLQDELPATEFSMWIRPLQAELSDNTLALYAPNRFVLDWVRDKYLNNINGLLTSFCGADAPQLRFEVGTKPVTQTPQAAVTSNVAAPAQVAQTQPQRAAPSTRSGWDNVPAPAEPTYRSNVNVKHTFDNFVEGKSNQLARAAARQVADNPGGAYNPLFLYGGTGLGKTHLLHAVGNGIMARKPNAKVVYMHSERFVQDMVKALQNNAIEEFKRYYRSVDALLIDDIQFFANKERSQEEFFHTFNALLEGNQQIILTSDRYPKEINGVEDRLKSRFGWGLTVAIEPPELETRVAILMKKADENDIRLPGEVAFFIAKRLRSNVRELEGALNRVIANANFTGRAITIDFVREALRDLLALQEKLVTIDNIQKTVAEYYKIKVADLLSKRRSRSVARPRQMAMALAKELTNHSLPEIGDAFGGRDHTTVLHACRKIEQLREESHDIKEDFSNLIRTLSS | 5.49 ± 0.27 | 4.24 ± 0.24 | 2.83 ± 0.047 | 3.85 ± 0.16 | 2.8675 ± 0.00078 | 2.183 ± 0.021 | 3.897 ± 0.019 | 5.25 ± 0.15 | 2.94 ± 0.26 | 3.79 ± 0.058 | 3.61 ± 0.12 | 6.1 ± 0.38
2 | MNLLTVSTDLISIFLFTTLFLFFARKVAKKVGLVDKPNFRKRHQGLIPLVGGISVYAGICFTFGIVDYYIPHASLYLACAGVLVFIGALDDRFDISVKIRATIQAAVGIVMMVFGKLYLSSLGYIFGSWEMVLGPFGYFLTLFAVWAAINAFNMVDGIDGLLGGLSCVSFAAIGMILWFDGQTSLAIWCFAMIAAILPYIMLNLGILGRRYKVFMGDAGSTLIGFTVIWILLETTQGKTHPISPVTALWIIAIPLMDMVAIMYRRLRKGMSPFSPDRQHIHHLIMRAGFTSRQAFVLITLAAALLASIGVLAEYSHFVPEWVMLVLFLLAFFLYGYCIKRAWKVARFIKRVKRRLRRNRGGSPNLTK [P0AC78] |  | 6.35 | 5.89 ± 0.39 | 5.27 ± 0.83 | 5.8 ± 0.18 | 3.68 ± 0.28 | 5.75 | 11.8 ± 2.3 | 6.03 | 10.4 | 6.33 ± 0.36 | 
3 | MTKPYVRLDKNDAAVLLVDHQAGLLSLVRDIEPDKFKNNVLALGDLAKYFNLPTILTTSFETGPNGPLVPELKAQFPDTPYIARPGNINAWDNEDFVKAVKATGKKQLIIAGVVTEVCVAFPALSAIEEGFDVFVVTDASGTFNEITRHSAWDRLSQAGAQLMTWFGVACELHRDWRNDIEGLATLFSNHIPDYRNLMTSYDTLTKQK | 6.75 ± 1.6 | 5.73 ± 0.18 | 5.4 ± 0.7 | 5.666 ± 0.053 | 4.69 ± 0.19 | 3.0124 ± 0.0024 |  | 10.3 ± 1.9 | 5.17 ± 0.61 | 9.22 ± 0.33 | 5.84 ± 0.94 | 12.9 ± 1.1
4 | MQNITQSWFVQGMIKATTDAWLKGWDERNGGNLTLRLDDADIAPYHDNFHQQPRYIPLSQPMPLLANTPFIVTGSGKFFRNVQLDPAANLGIVKVDSDGAGYHILWGLTNEAVPTSELPAHFLSHCERIKATNGKDRVIMHCHATNLIALTYVLENDTAVFTRQLWEGSTECLVVFPDGVGILPWMVPGTDEIGQATAQEMQKHSLVLWPFHGVFGSGPTLDETFGLIDTAEKSAQVLVKVYSMGGMKQTISREELIALGKRFGVTPLASALAL | 3.93 | 2.62 | 2.77 ± 0.41 |  | 2.45 |  | 5.1 | > 16 |  | 3.97 | 4.9 | 10.1 ± 0.11
5 | MAGNVQEKQLRWYNIALMSFITVWGFGNVVNNYANQGLVVVFSWVFIFALYFTPYALIVGQLGSTFKDGKGGVSTWIKHTMGPGLAYLAAWTYWVVHIPYLAQKPQAILIALGWAMKGDGSLIKEYSVVALQGLTLVLFIFFMWVASRGMKSLKIVGSVAGIAMFVMSLLYVAMAVTAPAITEVHIATTNITWETFIPHIDFTYITTISMLVFAVGGAEKISPYVNQTRNPGKEFPKGMLCLAVMVAVCAILGSLAMGMMFDSRNIPDDLMTNGQYYAFQKLGEYYNMGNTLMVIYAIANTLGQVAALVFSIDAPLKVLLGDADSKYIPASLCRTNASGTPVNGYFLTLVLVAILIMLPTLGIGDMNNLYKWLLNLNSVVMPLRYLWVFVAFIAVVRLAQKYKPEYVFIRNKPLAMTVGIWCFAFTAFACLTGIFPKMEAFTAEWTFQLALNVATPFVLVGLGLIFPLLARKANSK |  |  |  |  |  |  | 6.93 |  |  |  |  | 
6 | MADKELKFLVVDDFSTMRRIVRNLLKELGFNNVEEAEDGVDALNKLQAGGYGFVISDWNMPNMDGLELLKTIRADGAMSALPVLMVTAEAKKENIIAAAQAGASGYVVKPFTAATLEEKLNKIFEKLGM [P0AE67] | 4.52 ± 0.43 | 4.01 | 3.69 ± 0.95 | 5.08 ± 0.6 | 4.41 | 2.33 ± 0.22 | 4.08 ± 0.41 | 5.96 ± 0.14 | 3.82 ± 0.84 | 5.61 ± 0.14 | 3.91 | 6.33 ± 0.44
7 | MTPFMTEDFLLDTEFARRLYHDYAKDQPIFDYHCHLPPQQIAEDYRFKNLYDIWLKGDHYKWRAMRTNGVAERLCTGDASDREKFDAWAATVPHTIGNPLYHWTHLELRRPFGITGKLLSPSTADEIWNECNELLAQDNFSARGIMQQMNVKMVGTTDDPIDSLEHHAEIAKDGSFTIKVLPSWRPDKAFNIEQATFNDYMAKLGEVSDTDIRRFADLQTALTKRLDHFAAHGCKVSDHALDVVMFAEANEAELDSILARRLAGETLSEHEVAQFKTAVLVFLGAEYARRGWVQQYHIGALRNNNLRQFKLLGPDVGFDSINDRPMAEELSKLLSKQNEENLLPKTILYCLNPRDNEVLGTMIGNFQGEGMPGKMQFGSGWWFNDQKDGMERQMTQLAQLGLLSRFVGMLTDSRSFLSYTRHEYFRRILCQMIGRWVEAGEAPADINLLGEMVKNICFNNARDYFAIELN [P0A8G3] | 4.91 ± 0.32 | 4.13 ± 0.56 | 4.83 ± 1.5 | 4.12 ± 0.18 | 3.84 ± 0.12 | 2.87 ± 0.56 | 5.94 ± 0.12 | 11.9 ± 0.95 | 4.02 ± 0.48 | 6.3 ± 0.21 | 5.26 ± 0.087 | 9.95 ± 0.88

Source: the supplement of paper PMC11246515
